From PMC4031084, “The Phytochrome B/Phytochrome C Heterodimer Is Necessary for Phytochrome C-Mediated Responses in Rice Seedlings” (PLoS ONE, 2014)

Columns and labels:
recombinant rice phyA = target: T1, recombinant rice phyA (Oryza sativa, UniProt Q10DU0); experiment: R/FR absorbance difference spectroscopy of the purified holoprotein; assay type: binding; settings: covalent; chromophore assembled in E. coli
T1 construct: full length; phytochromobilin-producing E. coli Rosetta 2; homodimer on SEC
T1 sequence (Q10DU0 1-1128): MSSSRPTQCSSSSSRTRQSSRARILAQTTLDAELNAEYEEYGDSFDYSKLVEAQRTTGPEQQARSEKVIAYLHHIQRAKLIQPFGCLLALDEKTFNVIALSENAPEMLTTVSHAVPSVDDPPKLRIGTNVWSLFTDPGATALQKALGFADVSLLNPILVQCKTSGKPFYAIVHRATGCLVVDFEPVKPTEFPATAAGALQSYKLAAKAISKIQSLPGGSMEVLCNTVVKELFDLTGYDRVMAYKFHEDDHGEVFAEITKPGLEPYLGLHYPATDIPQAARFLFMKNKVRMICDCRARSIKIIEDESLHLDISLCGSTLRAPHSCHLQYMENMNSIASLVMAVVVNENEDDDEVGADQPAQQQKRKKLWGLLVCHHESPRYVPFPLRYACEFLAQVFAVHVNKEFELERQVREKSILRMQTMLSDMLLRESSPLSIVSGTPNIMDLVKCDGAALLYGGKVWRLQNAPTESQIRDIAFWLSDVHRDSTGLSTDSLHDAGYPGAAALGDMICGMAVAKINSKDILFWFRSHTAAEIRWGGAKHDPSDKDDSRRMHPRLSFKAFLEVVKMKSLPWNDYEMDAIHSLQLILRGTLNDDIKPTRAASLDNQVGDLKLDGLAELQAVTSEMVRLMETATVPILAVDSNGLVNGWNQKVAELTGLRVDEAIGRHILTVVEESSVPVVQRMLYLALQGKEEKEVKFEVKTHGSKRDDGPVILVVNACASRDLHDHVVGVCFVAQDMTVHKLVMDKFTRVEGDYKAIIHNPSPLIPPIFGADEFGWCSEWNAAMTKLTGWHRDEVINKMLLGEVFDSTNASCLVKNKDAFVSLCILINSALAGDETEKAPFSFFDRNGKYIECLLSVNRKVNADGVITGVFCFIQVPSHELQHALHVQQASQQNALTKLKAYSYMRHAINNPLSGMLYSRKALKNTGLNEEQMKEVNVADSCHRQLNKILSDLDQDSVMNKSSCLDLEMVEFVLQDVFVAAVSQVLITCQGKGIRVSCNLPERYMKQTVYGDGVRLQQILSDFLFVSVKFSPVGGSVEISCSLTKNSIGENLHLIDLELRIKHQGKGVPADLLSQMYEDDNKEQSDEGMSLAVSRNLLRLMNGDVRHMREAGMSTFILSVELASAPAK

recombinant rice phyC = target: T2, recombinant rice phyC (Oryza sativa, UniProt Q10CQ8); experiment: as above; assay type: binding; settings: covalent; chromophore assembled in E. coli
T2 construct: full length; phytochromobilin-producing E. coli Rosetta 2; monomer on SEC
T2 sequence (Q10CQ8 1-1137): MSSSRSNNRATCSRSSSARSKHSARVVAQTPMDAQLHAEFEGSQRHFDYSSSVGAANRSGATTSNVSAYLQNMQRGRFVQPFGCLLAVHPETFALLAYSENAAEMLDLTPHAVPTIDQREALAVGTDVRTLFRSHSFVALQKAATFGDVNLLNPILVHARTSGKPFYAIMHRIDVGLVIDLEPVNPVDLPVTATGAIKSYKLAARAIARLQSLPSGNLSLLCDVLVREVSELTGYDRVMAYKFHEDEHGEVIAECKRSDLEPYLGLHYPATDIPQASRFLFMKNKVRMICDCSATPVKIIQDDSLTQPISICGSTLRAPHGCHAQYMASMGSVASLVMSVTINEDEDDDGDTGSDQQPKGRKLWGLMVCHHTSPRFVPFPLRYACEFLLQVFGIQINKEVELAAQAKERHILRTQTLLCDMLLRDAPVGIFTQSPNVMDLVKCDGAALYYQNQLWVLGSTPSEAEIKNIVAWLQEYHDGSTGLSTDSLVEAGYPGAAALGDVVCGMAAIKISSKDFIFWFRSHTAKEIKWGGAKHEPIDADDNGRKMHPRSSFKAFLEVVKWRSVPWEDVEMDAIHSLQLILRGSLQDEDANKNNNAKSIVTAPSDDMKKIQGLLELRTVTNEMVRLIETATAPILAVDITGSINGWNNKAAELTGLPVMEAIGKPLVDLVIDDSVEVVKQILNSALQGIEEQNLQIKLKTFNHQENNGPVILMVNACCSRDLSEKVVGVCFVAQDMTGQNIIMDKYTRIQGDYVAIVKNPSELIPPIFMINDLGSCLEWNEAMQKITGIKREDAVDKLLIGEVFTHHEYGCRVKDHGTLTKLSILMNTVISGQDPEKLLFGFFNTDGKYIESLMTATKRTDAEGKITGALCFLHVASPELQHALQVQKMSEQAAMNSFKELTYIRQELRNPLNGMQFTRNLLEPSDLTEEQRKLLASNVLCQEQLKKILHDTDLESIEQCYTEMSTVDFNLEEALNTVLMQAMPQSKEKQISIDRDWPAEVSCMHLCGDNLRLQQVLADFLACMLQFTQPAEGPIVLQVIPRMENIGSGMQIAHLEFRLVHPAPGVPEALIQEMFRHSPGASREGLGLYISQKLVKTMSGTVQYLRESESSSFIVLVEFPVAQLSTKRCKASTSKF

[1] = target: the molecule itself; experiment: SEC; protein extracts (1 mg total soluble protein) of etiolated seedlings of WT and phytochrome single and double mutants on Superdex 200 HR 10/30; 50 mM Na-phosphate pH 7.0, 150 mM NaCl, 4 C; fractions immunoblotted with anti-PHYA, anti-PHYB, anti-PHYC; column calibrated with molecular weight standards
[2] = target: the molecule itself; experiment: SEC; recombinant phyA or phyC from E. coli fractionated on the same column; fractions #17-#24 immunoblotted with anti-His tag or anti-phytochrome antibodies

Molecule: C=CC1=C(C)C(=CC2=NC(=Cc3[nH]c(C=C4NC(=O)C(C)C4=CC)c(C)c3CCC(=O)O)C(CCC(=O)O)=C2C)NC1=O (centres unmarked) [phytochromobilin]
- R/FR absorbance difference spectroscopy of the purified holoprotein (recombinant rice phyA): recombinant phyA was also expressed using the same experimental procedure
- R/FR absorbance difference spectroscopy of the purified holoprotein (recombinant rice phyC): Recombinant phyC with phytochromobilins as a chromophore was expressed in E. coli

B1: rice phytochrome B (phyB), native (natural protein, UniProt Q10MG9 1-1171, looked up)
chain: MASGSRATPTRSPSSARPAAPRHQHHHSQSSGGSTSRAGGGGGGGGGGGGGAAAAESVSKAVAQYTLDARLHAVFEQSGASGRSFDYTQSLRASPTPSSEQQIAAYLSRIQRGGHIQPFGCTLAVADDSSFRLLAYSENTADLLDLSPHHSVPSLDSSAVPPPVSLGADARLLFAPSSAVLLERAFAAREISLLNPLWIHSRVSSKPFYAILHRIDVGVVIDLEPARTEDPALSIAGAVQSQKLAVRAISRLQALPGGDVKLLCDTVVEYVRELTGYDRVMVYRFHEDEHGEVVAESRRNNLEPYIGLHYPATDIPQASRFLFRQNRVRMIADCHAAPVRVIQDPALTQPLCLVGSTLRSPHGCHAQYMANMGSIASLVMAVIISSGGDDDHNISRGSIPSAMKLWGLVVCHHTSPRCIPFPLRYACEFLMQAFGLQLNMELQLAHQLSEKHILRTQTLLCDMLLRDSPTGIVTQSPSIMDLVKCDGAALYYHGKYYPLGVTPTEVQIKDIIEWLTMCHGDSTGLSTDSLADAGYPGAAALGDAVSGMAVAYITPSDYLFWFRSHTAKEIKWGGAKHHPEDKDDGQRMHPRSSFKAFLEVVKSRSLPWENAEMDAIHSLQLILRDSFRDSAEGTSNSKAIVNGQVQLGELELRGIDELSSVAREMVRLIETATVPIFAVDTDGCINGWNAKVAELTGLSVEEAMGKSLVNDLIFKESEETVNKLLSRALRGDEDKNVEIKLKTFGPEQSKGPIFVIVNACSSRDYTKNIVGVCFVGQDVTGQKVVMDKFINIQGDYKAIVHNPNPLIPPIFASDENTCCSEWNTAMEKLTGWSRGEVVGKLLVGEVFGNCCRLKGPDALTKFMIVLHNAIGGQDCEKFPFSFFDKNGKYVQALLTANTRSRMDGEAIGAFCFLQIASPELQQAFEIQRHHEKKCYARMKELAYIYQEIKNPLNGIRFTNSLLEMTDLKDDQRQFLETSTACEKQMSKIVKDASLQSIEDGSLVLEKGEFSLGSVMNAVVSQVMIQLRERDLQLIRDIPDEIKEASAYGDQYRIQQVLCDFLLSMVRFAPAENGWVEIQVRPNIKQNSDGTDTMLFLFRFACPGEGLPPEIVQDMFSNSRWTTQEGIGLSICRKILKLMGGEVQYIRESERSFFHIVLELPQPQQAASRGTS
notes: phytochrome B of rice (Oryza sativa L. cv. Nipponbare), native protein in seedling extracts; Native photoreceptor; source: endogenous, soluble protein extract of rice seedlings (etiolated or white-light-grown)
- stoichiometry N [1]: 2

B2: rice phytochrome A (phyA), native (natural protein, UniProt Q10DU0 1-1128, looked up)
chain: T1 sequence (Q10DU0 1-1128)
notes: phytochrome A of rice (Oryza sativa L. cv. Nipponbare), native protein in seedling extracts; source: endogenous, soluble protein extract of etiolated rice seedlings
- stoichiometry N [1]: 2

B3: recombinant rice phyA with phytochromobilin (natural protein, UniProt Q10DU0 1-1128, looked up)
chain: T1 sequence (Q10DU0 1-1128)
modifications: phytochromobilin as chromophore
notes: full length rice phytochrome A; also called recombinant phyA; source: E. coli Rosetta 2 cells expressing phytochromobilin, purified; not shown: His6, C-terminal, kept
- stoichiometry N [2]: 2
